# “Also recorded” adds a separate entry of the source.
# T1: FSTL1 (Homo sapiens, UniProt Q12841)
# T1 sequence (Q12841 21-308): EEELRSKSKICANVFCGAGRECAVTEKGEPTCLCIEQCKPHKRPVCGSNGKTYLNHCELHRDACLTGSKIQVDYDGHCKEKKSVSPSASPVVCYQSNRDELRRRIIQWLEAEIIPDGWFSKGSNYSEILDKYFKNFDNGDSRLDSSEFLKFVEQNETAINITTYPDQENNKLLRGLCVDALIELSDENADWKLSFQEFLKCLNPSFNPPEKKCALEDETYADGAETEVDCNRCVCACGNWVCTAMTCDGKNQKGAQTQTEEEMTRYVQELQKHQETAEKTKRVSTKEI
# B1: #6-55: chicken-mouse chimeric anti-FSTL1 antibody clone; variable regions SEQ ID NO: 783 (light), 785 (heavy) (antibody, V domains shown)
# VH: AVTLDESGGGLQTPGGALSLVCKGSGFTFTSVTMQWVRQAPGKGLEWVASVCSGSSTYYAPAVKGRATISRDNGQSTVRLQLSNLRPEDTGTYYCAKIAGRARWSCTSAAYNIDAWGHGTEVIVSS
# VL: ASTQPSSVSAIPGETVKITCSGGGNNYGWYQQRSPGSAPVTVIYYNDNRPSNIPSRFSGSTSGSTSTLTITGVQADDEAIYYCGSWDSNTDSGIFGAGTTLTVL
# modifications: mouse constant regions
# Legend:
# FSTL1 [1] = target: T1, FSTL1; test: Action of anti-FSTL1 antibody on Panc1 under FSTL1 stimulation; format: cell-based; parameters: purchased R&D Systems, Inc. 1694-FN-050; details: Panc1 stimulated with FSTL1 for 3 days; antibody 5 μg/ml
# Experimental: Next, in order to examine how surrounding tumor cells were changed in a cancer microenvironment by receiving FSTL1 produced by Snail/FSTL1-expressing cells, and how the anti-FSTL1 antibody acts thereon, a human pancreatic cancer cell line Panc1 confirmed to express Snail or FSTL1 only slightly was stimulated with FSTL1 for 3 days. The anti-FSTL1 antibody (#6-55, 5 μg/ml) or a control antibody (aHema, 5 μg/ml) was added to this culture system, and subsequent change in cell function was analyzed in the same way as in the preceding paragraph. […] The paper also reports that FSTL1 enhances invasive capacity.
# [2] = system: induction of MSCs having the ability to differentiate into adipocytes; test: Ability to differentiate into adipocytes (Examples 14, 16); format: cell-based, mouse; details: Example 16, FIG. 10B/40B; antibody 2.5-20.0 μg/ml
# Experimental: The antibody clone (#6-55, #7, #10, #13, or […]) was evaluated for its activity by the same testing method as in Example 13. #6-55 was set as a positive control for activity. […] Mouse bone marrow cells were supplemented with FSTL1 and the predetermined concentration of each antibody and cultured for 8 days. 5×10^4 cells/well were separated from each culture system and evaluated for the ability to differentiate into adipocytes using an adipocyte differentiation reagent included in “Mesenchymal Stem Cell Functional Identification Kit (R&D Systems, Inc., Cat. No. SC010)”. For the evaluation method, the cells were supplemented with the adipocyte differentiation reagent and cultured for 8 days. Then, adipocytes per culture system were counted under a microscope for evaluation. […]
# In the same way as in Example 15, mouse bone marrow cells were supplemented with FSTL1 and the predetermined concentration of each antibody and cultured for 8 days. 5×10^4 cells/well were separated from each culture system and evaluated for the ability to differentiate into adipocytes using an adipocyte differentiation reagent included in “Mesenchymal Stem Cell Functional Identification Kit (R&D Systems, Inc., Cat. No. SC010)”. […] Then, adipocytes per culture system were counted under a microscope for evaluation (FIG. 10B). […]
# Panc1-snail+ = test: Action of anti-FSTL1 antibody on Panc1-snail+ cells forced to express Snail (invasion, CCR2 and RANKL expression); format: cell-based, human; details: antibody 5 μg/ml
# Experimental: Cell invasion was evaluated in the presence of the anti-FSTL1 antibody (#6-55, 5 μg/ml) or a control antibody (aHema, 5 μg/ml) in a chamber using Panc1-snail+, a cell line forced to express Snail, instead of the FSTL1-stimulated tumor cells of the preceding paragraph.
# (§1) In this Example, Panc1-snail+ cells were cultured for 3 days in the presence of the added antibody. Then, the expression of CCR2 and RANKL among molecules known as bone metastasis markers was analyzed by flow cytometry. […] The anti-FSTL1 antibody presumably has inhibitory activity against cell invasion (FIG. 50D).
# as §1, with “82D).” for “50D).”
# FSTL1 [3] = target: T1, FSTL1; test: Ability of FSTL1-induced MSCs from mouse bone marrow cells to differentiate into adipocytes (Examples 14, 16); format: cell-based; parameters: purchased R&D Systems, Inc. 1694-FN-050; details: Example 16; antibody doses as in Example 15
# Experimental: The antibody clone (#6-55, #7, […], #13, or #22) was evaluated for its activity by the same testing method as in Example 13. #6-55 was set as a positive control for activity. […] Mouse bone marrow cells were supplemented with FSTL1 and the predetermined concentration of each antibody and cultured for 8 days. 5×10^4 cells/well were separated from each culture system and evaluated for the ability to differentiate into adipocytes using an adipocyte differentiation reagent included in “Mesenchymal Stem Cell Functional Identification Kit (R&D Systems, Inc., Cat. No. SCO10)”. For the evaluation method, the cells were supplemented with the adipocyte differentiation reagent and cultured for 8 days. Then, adipocytes per culture system were counted under a microscope for evaluation. […]
# In the same way as in Example 15, mouse bone marrow cells were supplemented with FSTL1 and the predetermined concentration of each antibody and cultured for 8 days. 5×10^4 cells/well were separated from each culture system and evaluated for the ability to differentiate into adipocytes using an adipocyte differentiation reagent included in “Mesenchymal Stem Cell Functional Identification Kit (R&D Systems, Inc., Cat. No. SC010)”. […] Then, adipocytes per culture system were counted under a microscope for evaluation (FIG. 40B). […]
molecule,measurement,setting,value
B1,cell growth,FSTL1 [1],the cell growth was reduced
same,invasive capacity enhanced by FSTL1,FSTL1 [1],the action thereof is canceled
same,differentiation into adipocytes (induction of MSCs having the ability to differentiate into adipocytes),[2],inhibited by #6-55 in an antibody dose-dependent manner; also recorded: cells differentiating into adipocytes decreased in number by the addition of #6-55 in a dose-dependent manner
same,cell invasion,Panc1-snail+,suppressive activity was able to be confirmed
same,cells differentiating into adipocytes / induction of MSCs having the ability to differentiate into adipocytes,FSTL1 [3],decreased in number by the addition of #6-55 in a dose-dependent manner; also recorded: inhibited by 46-55 in an antibody dose-dependent manner; also recorded: inhibited by #6-55 in an antibody dose-dependent manner

# — US20180021429A1, “ANTICANCER AGENTS OR ANTIMETASTATIC AGENTS USING FSTL1 AND COMBINATION DRUG THEREOF” (PHARMA FOODS INTERNATIONAL CO., LTD., priority 2015, published 2018)
